Source: article PMC8704557 (International Journal of Molecular Sciences, 2021)
One block for each molecule: values may come before it.

How the values were obtained:
[1] = target: STK16540 protein (product of stk_16540), alpha subunit of the Dye-LDH complex (Sulfurisphaera tokodaii); test: native gel or EMSA; native gradient PAGE (Novex NativePAGE Bis-Tris gel system) of the purified enzyme; single protein of approximately 253 kDa; subunit masses from SDS-PAGE
[2] = target: T1, Dye-LDH complex (recombinant dye-linked L-lactate dehydrogenase, STK16540 (α) / STK16550 (β), α3β3) (Sulfurisphaera tokodaii, UniProt Q970D7); test: flavin extracted from purified enzyme, identified by HPLC; type: binding; conditions: prosthetic group co-purified with the complex
T1 construct: gene ST1655; gene cluster stk_16540-16570 expressed in Sulfolobus acidocaldarius SK1; N-terminal His-tag on STK16540 kept; purified α3β3 heterohexamer, about 253 kDa (subunits 30 and 40 kDa by SDS-PAGE; STK16550 43 kDa); stk_16560 and stk_16570 products not in the purified complex; with Dye-linked L-lactate dehydrogenase, alpha subunit (hypothetical protein with Fe-S cluster motif)
T1 sequence (Q970D7 1-383): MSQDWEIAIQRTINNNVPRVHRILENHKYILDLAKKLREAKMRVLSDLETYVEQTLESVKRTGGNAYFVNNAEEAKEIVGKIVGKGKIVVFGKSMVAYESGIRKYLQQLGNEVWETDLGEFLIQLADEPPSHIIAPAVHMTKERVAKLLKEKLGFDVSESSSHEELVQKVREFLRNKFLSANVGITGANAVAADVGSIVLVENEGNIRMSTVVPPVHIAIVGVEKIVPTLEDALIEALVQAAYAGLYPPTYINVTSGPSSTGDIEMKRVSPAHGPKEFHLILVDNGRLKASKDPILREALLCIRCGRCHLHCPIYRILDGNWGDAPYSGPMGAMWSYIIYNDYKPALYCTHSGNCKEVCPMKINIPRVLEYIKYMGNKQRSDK
T1 sequence (Q970D8 1-287 partner): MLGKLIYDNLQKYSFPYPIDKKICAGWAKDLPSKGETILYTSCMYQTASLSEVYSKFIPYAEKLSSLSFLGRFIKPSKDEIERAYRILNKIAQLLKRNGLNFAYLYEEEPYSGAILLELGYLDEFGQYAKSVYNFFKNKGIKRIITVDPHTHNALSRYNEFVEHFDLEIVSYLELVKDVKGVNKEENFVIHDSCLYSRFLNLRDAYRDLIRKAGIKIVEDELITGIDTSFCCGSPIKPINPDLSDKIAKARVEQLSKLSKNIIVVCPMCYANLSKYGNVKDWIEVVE

purified protein [3] = substrate: C[C@H](O)C(=O)O; test: purified protein; conditions: electron donor, standard assay 0.2 mM DCIP, 200 mM PIPES-NaOH pH 6.5, 60 °C, free enzyme
purified protein [4] = substrate: O=C1C(Cl)=CC(=Nc2ccc(O)cc2)C=C1Cl; test: purified protein; type: biochemical, Sulfurisphaera tokodaii; conditions: electron acceptor, standard assay 40 mM L-lactate, 200 mM PIPES-NaOH pH 6.5, 60 °C, free enzyme

stoichiometry N (β per α (3:3)) [1]: 1
Molecule: Dye-LDH homolog (product of stk_16550), beta subunit of the Dye-LDH complex (enzyme)

Molecule: Cc1cc2nc3c(=O)[nH]c(=O)nc-3n(C[C@H](O)[C@H](O)[C@H](O)COP(=O)(O)O)c2cc1C [FMN]
flavin extracted from purified enzyme, identified by HPLC [2]: the flavin compound in the enzyme extract was identified as FMN

B1: Dye-LDH complex (recombinant dye-linked L-lactate dehydrogenase, STK16540 (α) / STK16550 (β), α3β3) (Sulfurisphaera tokodaii str. 7) (protein)
chain: T1 sequence (Q970D7 1-383)
notes: gene cluster stk_16540-16570 expressed in Sulfolobus acidocaldarius SK1; N-terminal His-tag on STK16540 kept; purified α3β3 heterohexamer, about 253 kDa (subunits 30 and 40 kDa by SDS-PAGE; STK16550 43 kDa); stk_16560 and stk_16570 products not in the purified complex; with Dye-linked L-lactate dehydrogenase, alpha subunit (hypothetical protein with Fe-S cluster motif)
Km (purified protein [3]): 199 µM
Km (purified protein [4]): 200 µM
